This note sets out measurements from publication PMC9280192.

The assay has as its target IRSp53 (insulin receptor substrate protein 53), full-length. The assay is described as follows: SEC-MALS. Background: SEC sorts molecules by how far they enter the pores of the column.

In turn, “IRSp53 (insulin receptor substrate protein 53), full-length (natural protein)” registered a stoichiometry N of 2.

Usually stoichiometry N stands for the number of molecules, sites or subunits per partner or assembly.
